# Measurements published in patent US20240270846A1 (published 2024).
# Target: T1, CD3 epsilon homodimer protein (UniProt P07766 23-126)
# T1 construct: also called CD3 (CD3 epsilon)
# Experiment: SPR Biacore T200, CD3 epsilon homodimer on chip, antibody as analyte;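 further: homodimer amine-coupled to a CM4 sensor chip, run at 25 °C in HBS-EP+ buffer, with kinetic parameters derived in Biacore T200 Evaluation Software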
# Method: An appropriate amount of CD3 epsilon homodimer protein was immobilized onto Sensor chip CM4 (GE Healthcare Japan Corp.) by the amine coupling method. Then, the antibody having an appropriate concentration was injected thereto as an analyte and allowed to interact with the CD3 epsilon homodimer protein on the sensor chip. Then, the sensor chip was regenerated by the injection of 10 mmol/L glycine-HCl (pH 1.5). The assay was conducted at 25 degrees C., and HBS-EP+(GE Healthcare Japan Corp.) was used as a running buffer. […] Each parameter was calculated using Biacore T200 Evaluation Software (GE Healthcare Japan Corp.).
# Specifically, when the amount of the antibody comprising CE115HA000 bound was defined as X and the amount of the H chain one-amino acid altered form bound was defined as Y, a value of Z (ratio of amounts bound)=Y/X was used.
# T1 sequence (P07766 23-126): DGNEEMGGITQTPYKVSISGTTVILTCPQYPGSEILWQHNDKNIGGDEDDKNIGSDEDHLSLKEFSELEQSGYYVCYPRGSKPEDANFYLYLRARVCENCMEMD
row,Binder,KD ratio (KD of CE115HA000 / KD of altered form)
1,"CE115HA000 H chain altered form A56L (antibody, human IgG1, kappa, L234A L235A, N297A, name in Kabat numbering, one-arm antibody) heavy: QVQLVESGGGVVQPGRSLRLSCAASGFTFSNAWMHWVRQAPGKGLEWVAQIKAKSNNYLTYYAESVKGRFTISRDDSKNSLYLQMNSLKTEDTAVYYCRYVHYGAYYGVDAWGQGTTVTVSSASTKGPSVFPLAPSSKSTSGGTAALGCLVKDYFPEPVTVSWNSGALTSGVHTFPAVLQSSGLYSLSSVVTVPSSSLGTQTYICNVNHKPSNTKVDKKVEPKSCDKTHTCPPCPAPEAAGGPSVFLFPPKPKDTLMISRTPEVTCVVVDVSHEDPEVKFNWYVDGVEVHNAKTKPREEQYASTYRVVSVLTVLHQDWLNGKEYKCKVSNKALPAPIEKTISKAKGQPREPQVYTLPPSRCELTKNQVSLSCAVKGFYPSDIAVEWESNGQPENNYKTTPPVLDSDGSFFLVSKLTVDKSRWQQGNVFSCSVMHEALHNHYTQKSLSLSPDYKDDDDK EPKSSDKTHTCPPCPAPELLGGPSVFLFPPKPKDTLMISRTPEVTCVVVDVSHEDPEVKFNWYVDGVEVHNAKTKPREEQYNSTYRVVSVLTVLHQDWLNGKEYKCKVSNKALPAPIEKTISKAKGQPREPQVCTLPPSRDELTKNQVSLWCLVKGFYPSDIAVEWESNGQPENNYKTTPPVLDSDGSFFLYSKLTVDKSRWQQGNVFSCSVMHEALHNRYTQKSLSLSP light: DIVMTQSPLSLPVTPGEPASISCRSSQSLVHSNRNTYLHWYQQKPGQAPRLLIYKVSNRFSGVPDRFSGSGSGTDFTLKISRVEAEDVGVYYCGQGTQVPYTFGQGTKLEIKRTVAAPSVFIFPPSDEQLKSGTASVVCLLNNFYPREAKVQWKVDNALQSGNSQESVTEQDSKDSTYSLSSTLTLSKADYEKHKVYACEVTHQGLSSPVTKSFNRGEC",0.77
2,"CE115HA000 H chain altered form A56N (antibody, human IgG1, kappa, L234A L235A, N297A, name in Kabat numbering, one-arm antibody) heavy: QVQLVESGGGVVQPGRSLRLSCAASGFTFSNAWMHWVRQAPGKGLEWVAQIKAKSNNYNTYYAESVKGRFTISRDDSKNSLYLQMNSLKTEDTAVYYCRYVHYGAYYGVDAWGQGTTVTVSSASTKGPSVFPLAPSSKSTSGGTAALGCLVKDYFPEPVTVSWNSGALTSGVHTFPAVLQSSGLYSLSSVVTVPSSSLGTQTYICNVNHKPSNTKVDKKVEPKSCDKTHTCPPCPAPEAAGGPSVFLFPPKPKDTLMISRTPEVTCVVVDVSHEDPEVKFNWYVDGVEVHNAKTKPREEQYASTYRVVSVLTVLHQDWLNGKEYKCKVSNKALPAPIEKTISKAKGQPREPQVYTLPPSRCELTKNQVSLSCAVKGFYPSDIAVEWESNGQPENNYKTTPPVLDSDGSFFLVSKLTVDKSRWQQGNVFSCSVMHEALHNHYTQKSLSLSPDYKDDDDK EPKSSDKTHTCPPCPAPELLGGPSVFLFPPKPKDTLMISRTPEVTCVVVDVSHEDPEVKFNWYVDGVEVHNAKTKPREEQYNSTYRVVSVLTVLHQDWLNGKEYKCKVSNKALPAPIEKTISKAKGQPREPQVCTLPPSRDELTKNQVSLWCLVKGFYPSDIAVEWESNGQPENNYKTTPPVLDSDGSFFLYSKLTVDKSRWQQGNVFSCSVMHEALHNRYTQKSLSLSP light: DIVMTQSPLSLPVTPGEPASISCRSSQSLVHSNRNTYLHWYQQKPGQAPRLLIYKVSNRFSGVPDRFSGSGSGTDFTLKISRVEAEDVGVYYCGQGTQVPYTFGQGTKLEIKRTVAAPSVFIFPPSDEQLKSGTASVVCLLNNFYPREAKVQWKVDNALQSGNSQESVTEQDSKDSTYSLSSTLTLSKADYEKHKVYACEVTHQGLSSPVTKSFNRGEC",0.84
3,"CE115HA000 H chain altered form A56Q (antibody, human IgG1, kappa, L234A L235A, N297A, name in Kabat numbering, one-arm antibody) heavy: QVQLVESGGGVVQPGRSLRLSCAASGFTFSNAWMHWVRQAPGKGLEWVAQIKAKSNNYQTYYAESVKGRFTISRDDSKNSLYLQMNSLKTEDTAVYYCRYVHYGAYYGVDAWGQGTTVTVSSASTKGPSVFPLAPSSKSTSGGTAALGCLVKDYFPEPVTVSWNSGALTSGVHTFPAVLQSSGLYSLSSVVTVPSSSLGTQTYICNVNHKPSNTKVDKKVEPKSCDKTHTCPPCPAPEAAGGPSVFLFPPKPKDTLMISRTPEVTCVVVDVSHEDPEVKFNWYVDGVEVHNAKTKPREEQYASTYRVVSVLTVLHQDWLNGKEYKCKVSNKALPAPIEKTISKAKGQPREPQVYTLPPSRCELTKNQVSLSCAVKGFYPSDIAVEWESNGQPENNYKTTPPVLDSDGSFFLVSKLTVDKSRWQQGNVFSCSVMHEALHNHYTQKSLSLSPDYKDDDDK EPKSSDKTHTCPPCPAPELLGGPSVFLFPPKPKDTLMISRTPEVTCVVVDVSHEDPEVKFNWYVDGVEVHNAKTKPREEQYNSTYRVVSVLTVLHQDWLNGKEYKCKVSNKALPAPIEKTISKAKGQPREPQVCTLPPSRDELTKNQVSLWCLVKGFYPSDIAVEWESNGQPENNYKTTPPVLDSDGSFFLYSKLTVDKSRWQQGNVFSCSVMHEALHNRYTQKSLSLSP light: DIVMTQSPLSLPVTPGEPASISCRSSQSLVHSNRNTYLHWYQQKPGQAPRLLIYKVSNRFSGVPDRFSGSGSGTDFTLKISRVEAEDVGVYYCGQGTQVPYTFGQGTKLEIKRTVAAPSVFIFPPSDEQLKSGTASVVCLLNNFYPREAKVQWKVDNALQSGNSQESVTEQDSKDSTYSLSSTLTLSKADYEKHKVYACEVTHQGLSSPVTKSFNRGEC",0.74
4,"CE115HA000 H chain altered form A56Y (antibody, human IgG1, kappa, L234A L235A, N297A, name in Kabat numbering, one-arm antibody) heavy: QVQLVESGGGVVQPGRSLRLSCAASGFTFSNAWMHWVRQAPGKGLEWVAQIKAKSNNYYTYYAESVKGRFTISRDDSKNSLYLQMNSLKTEDTAVYYCRYVHYGAYYGVDAWGQGTTVTVSSASTKGPSVFPLAPSSKSTSGGTAALGCLVKDYFPEPVTVSWNSGALTSGVHTFPAVLQSSGLYSLSSVVTVPSSSLGTQTYICNVNHKPSNTKVDKKVEPKSCDKTHTCPPCPAPEAAGGPSVFLFPPKPKDTLMISRTPEVTCVVVDVSHEDPEVKFNWYVDGVEVHNAKTKPREEQYASTYRVVSVLTVLHQDWLNGKEYKCKVSNKALPAPIEKTISKAKGQPREPQVYTLPPSRCELTKNQVSLSCAVKGFYPSDIAVEWESNGQPENNYKTTPPVLDSDGSFFLVSKLTVDKSRWQQGNVFSCSVMHEALHNHYTQKSLSLSPDYKDDDDK EPKSSDKTHTCPPCPAPELLGGPSVFLFPPKPKDTLMISRTPEVTCVVVDVSHEDPEVKFNWYVDGVEVHNAKTKPREEQYNSTYRVVSVLTVLHQDWLNGKEYKCKVSNKALPAPIEKTISKAKGQPREPQVCTLPPSRDELTKNQVSLWCLVKGFYPSDIAVEWESNGQPENNYKTTPPVLDSDGSFFLYSKLTVDKSRWQQGNVFSCSVMHEALHNRYTQKSLSLSP light: DIVMTQSPLSLPVTPGEPASISCRSSQSLVHSNRNTYLHWYQQKPGQAPRLLIYKVSNRFSGVPDRFSGSGSGTDFTLKISRVEAEDVGVYYCGQGTQVPYTFGQGTKLEIKRTVAAPSVFIFPPSDEQLKSGTASVVCLLNNFYPREAKVQWKVDNALQSGNSQESVTEQDSKDSTYSLSSTLTLSKADYEKHKVYACEVTHQGLSSPVTKSFNRGEC",0.63
5,"CE115HA000 H chain altered form A60D (antibody, human IgG1, kappa, L234A L235A, N297A, name in Kabat numbering, one-arm antibody) heavy: QVQLVESGGGVVQPGRSLRLSCAASGFTFSNAWMHWVRQAPGKGLEWVAQIKAKSNNYATYYDESVKGRFTISRDDSKNSLYLQMNSLKTEDTAVYYCRYVHYGAYYGVDAWGQGTTVTVSSASTKGPSVFPLAPSSKSTSGGTAALGCLVKDYFPEPVTVSWNSGALTSGVHTFPAVLQSSGLYSLSSVVTVPSSSLGTQTYICNVNHKPSNTKVDKKVEPKSCDKTHTCPPCPAPEAAGGPSVFLFPPKPKDTLMISRTPEVTCVVVDVSHEDPEVKFNWYVDGVEVHNAKTKPREEQYASTYRVVSVLTVLHQDWLNGKEYKCKVSNKALPAPIEKTISKAKGQPREPQVYTLPPSRCELTKNQVSLSCAVKGFYPSDIAVEWESNGQPENNYKTTPPVLDSDGSFFLVSKLTVDKSRWQQGNVFSCSVMHEALHNHYTQKSLSLSPDYKDDDDK EPKSSDKTHTCPPCPAPELLGGPSVFLFPPKPKDTLMISRTPEVTCVVVDVSHEDPEVKFNWYVDGVEVHNAKTKPREEQYNSTYRVVSVLTVLHQDWLNGKEYKCKVSNKALPAPIEKTISKAKGQPREPQVCTLPPSRDELTKNQVSLWCLVKGFYPSDIAVEWESNGQPENNYKTTPPVLDSDGSFFLYSKLTVDKSRWQQGNVFSCSVMHEALHNRYTQKSLSLSP light: DIVMTQSPLSLPVTPGEPASISCRSSQSLVHSNRNTYLHWYQQKPGQAPRLLIYKVSNRFSGVPDRFSGSGSGTDFTLKISRVEAEDVGVYYCGQGTQVPYTFGQGTKLEIKRTVAAPSVFIFPPSDEQLKSGTASVVCLLNNFYPREAKVQWKVDNALQSGNSQESVTEQDSKDSTYSLSSTLTLSKADYEKHKVYACEVTHQGLSSPVTKSFNRGEC",0.94
6,"CE115HA000 H chain altered form A60E (antibody, human IgG1, kappa, L234A L235A, N297A, name in Kabat numbering, one-arm antibody) heavy: QVQLVESGGGVVQPGRSLRLSCAASGFTFSNAWMHWVRQAPGKGLEWVAQIKAKSNNYATYYEESVKGRFTISRDDSKNSLYLQMNSLKTEDTAVYYCRYVHYGAYYGVDAWGQGTTVTVSSASTKGPSVFPLAPSSKSTSGGTAALGCLVKDYFPEPVTVSWNSGALTSGVHTFPAVLQSSGLYSLSSVVTVPSSSLGTQTYICNVNHKPSNTKVDKKVEPKSCDKTHTCPPCPAPEAAGGPSVFLFPPKPKDTLMISRTPEVTCVVVDVSHEDPEVKFNWYVDGVEVHNAKTKPREEQYASTYRVVSVLTVLHQDWLNGKEYKCKVSNKALPAPIEKTISKAKGQPREPQVYTLPPSRCELTKNQVSLSCAVKGFYPSDIAVEWESNGQPENNYKTTPPVLDSDGSFFLVSKLTVDKSRWQQGNVFSCSVMHEALHNHYTQKSLSLSPDYKDDDDK EPKSSDKTHTCPPCPAPELLGGPSVFLFPPKPKDTLMISRTPEVTCVVVDVSHEDPEVKFNWYVDGVEVHNAKTKPREEQYNSTYRVVSVLTVLHQDWLNGKEYKCKVSNKALPAPIEKTISKAKGQPREPQVCTLPPSRDELTKNQVSLWCLVKGFYPSDIAVEWESNGQPENNYKTTPPVLDSDGSFFLYSKLTVDKSRWQQGNVFSCSVMHEALHNRYTQKSLSLSP light: DIVMTQSPLSLPVTPGEPASISCRSSQSLVHSNRNTYLHWYQQKPGQAPRLLIYKVSNRFSGVPDRFSGSGSGTDFTLKISRVEAEDVGVYYCGQGTQVPYTFGQGTKLEIKRTVAAPSVFIFPPSDEQLKSGTASVVCLLNNFYPREAKVQWKVDNALQSGNSQESVTEQDSKDSTYSLSSTLTLSKADYEKHKVYACEVTHQGLSSPVTKSFNRGEC",0.88
